A word on the EC50: it is the concentration that produces a half-maximal response. The Kd is the concentration at which binding is half-saturated. A higher Kd goes with lower affinity. By IC50 is commonly meant the concentration that inhibits the measured activity by half.

For 3 molecules, EC50, Kd and IC50 results are on record in patent US20210332138A1 (published 2021).

Read-outs that look alike come from different tables or passages of the source.

In test [1] the target is T1, hPDL1 expressed on 293T cells (human, UniProt Q9NZQ7 19-290). Nature of the test: FACS. A general note: Flow cytometry measures light scatter and fluorescence of single cells or particles in a stream.
T1 sequence (Q9NZQ7 19-290): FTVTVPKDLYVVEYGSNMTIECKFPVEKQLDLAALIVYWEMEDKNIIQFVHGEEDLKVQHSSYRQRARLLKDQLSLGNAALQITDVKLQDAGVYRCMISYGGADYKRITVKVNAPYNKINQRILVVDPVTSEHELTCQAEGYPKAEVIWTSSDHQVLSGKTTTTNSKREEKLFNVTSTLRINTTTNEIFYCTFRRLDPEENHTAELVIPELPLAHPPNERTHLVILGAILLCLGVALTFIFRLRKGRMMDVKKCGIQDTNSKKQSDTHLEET
The target in test [2] is T2, hPDL1-Fc fusion protein (human, UniProt Q9NZQ7 19-238). Nature of the test: ELISA.
T2 sequence (Q9NZQ7 19-238): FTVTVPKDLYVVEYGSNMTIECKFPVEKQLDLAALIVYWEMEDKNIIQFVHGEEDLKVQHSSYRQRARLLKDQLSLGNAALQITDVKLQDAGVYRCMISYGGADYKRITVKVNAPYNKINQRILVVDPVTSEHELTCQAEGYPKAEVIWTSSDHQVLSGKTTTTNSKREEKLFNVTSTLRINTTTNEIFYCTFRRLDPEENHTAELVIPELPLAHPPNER
The target of test [3] is T2, hPDL1-Fc fusion protein. Description: BIAcore. For orientation: SPR reads the build-up and loss of mass on a sensor chip optically.
The target of test [4] is T2, hPDL1-Fc fusion protein. Nature of the test: ELISA; FIG. 11B. In general terms: An ELISA detects its analyte on a solid surface through an enzyme-linked reagent.
Test [5] has as its target T2, hPDL1-Fc fusion protein. Description: ELISA; FIG. 11C.
The target in test [6] is T2, hPDL1-Fc fusion protein. Nature of the test: RBA; PD1 coated.
In test [7] the target is T2, hPDL1-Fc fusion protein. Nature of the test: RBA; PDL1 coated.
The target of test [8] is T2, hPDL1-Fc fusion protein. Description: receptor blocking ELISA; hPD1-Fc coated.
Test [9] addresses T2, hPDL1-Fc fusion protein. Description: receptor blocking ELISA; hPDL1-Fc coated.
Test [10] has as its target T1, hPDL1 expressed on 293T cells. Nature of the test: FACS. The source holds these as a separate data set.

B1: full-length antibody 4-1E8 (antibody, V domains shown)
VH: QIQLVQSGAEVKMPGASVTISCEASGYNFISYYIHWVRQAPGQGLEWMGFVVPSGGAAGYTQKFQGRLTVTRDTSTSTVYMDLNSLTSDDTAVYYCVREMSGGWFDFWGQGTLVTVSS
VL: DIVMTQSPSSLSASVGDRVTITCRASQGIRNDLGWYQQKPGKAPKLLIYAASTLQSGVPSRFSGSGSGTDFTLTISSLQAEDVAVYYCQQYYSTPLTFGPGTKVDIK
For the molecule B1, the EC50 came to 0.356 nM in [1], 0.0391 nM in test [2], 0.0391 nM in [4] and 0.0247 nM in test [5]. The molecule also came in with a Kd in test [3] of 4.46 nM. Also, the IC50 was 1.26 nM in [6], 1.53 nM in [7], 1.53 nM in [8] and 1.26 nM in [9].

B2: full-length antibody 3-1E4 (antibody, V domains shown)
VH: QIQLVQSGAEVKKPGSSVKVSCKASGGTFSSYAISWVRQAPGQGLEWMGGIIPIFGTANYAQKFQGRVTITADKSTSTAYMELSSLRSEDTAVYYCAGGGAVADNSYWGQGTLVTVSS
VL: DIRMTQSPSSLSASVGDRVTITCRASQGIRNDLGWYQQKPGKAPKLLIYAASSLQSGVPSRFSGSGSGTDFTLTISSLQPEDFATYYCLQDYNYPRTFGQGTKVEIK
As to B2, the figures for the half-maximal effective concentration (EC50) in test [1], in test [2] and in [4] were 3.15 nM, 0.9 nM and 0.9 nM, respectively. Besides, the IC50 in [6] is 92.7 nM; in [7] it was 16.6 nM; in test [8], 16.6 nM; in test [9] it was 92.7 nM.

B3: full-length antibody 3-1B11 (antibody, V domains shown)
VH: EVQLVESGGGLVQPGGSLRLSCAASGFTFSDYDMIWVRQAPGKGLEWVAVISYDGSNKYYADSVKGRFTISRDNSKNTLYLQMNSLRAEDTAVYYCAKEFFGAFDIWGQGTMVTVSS
VL: SSELTQDPAVSVALGQTVTITCQGDSLNYYYANWFQLKPGQAPVLVLFGKNNRPSGIPDRFSGSYSGSTASLTITGAQAEDDADYYCNSRDSGGNPWVFGGGTKLTVL
As for B3, the concentration giving a half-maximal response (EC50) in test [10] worked out at 0.132 nM; in test [1], 0.132 nM; in [2], 0.018 nM; in test [5] it was 0.018 nM. Binding in test [3] was characterised by a dissociation constant (Kd) of 2.32 nM. In addition, the IC50 worked out at 1.39 nM in test [6] and 0.795 nM in test [7].
